Test results reported in patent US20240417476A1.

Molecular target: recombinant NRP2 isoform a (human) (UniProt O60462)
Assay: BLI (Octet RED96e)

Row | Kd | koff | kon | Binder
1 | 0.391 nM | 0.000293 s⁻¹ | 748000 M⁻¹ s⁻¹ | aNRP2-401v5 (antibody, V domains shown) VH: EVQLVESGGGLVQPGGSLRLSCAASGFTFSDYGMHWVRQAPGKGLEWVSTISRDINTVYYADTVKGRFTISRDNAKNSLYLQMNSLRAEDTAVYYCARGGYTDYWGQGTTVTVSS VL: DIVMTQTPLSLSVTPGQPASISCRSSQSLVHSNGNTYLYWYLQKPGQSPQLLIYKVSNRFSGVPDRFSGSGSGTDFTLKISRVEAEDVGVYYCSQSTHVLTFGGGTKVEIK
2 | 0.0989 nM | 0.00012 s⁻¹ | 1.21e+06 M⁻¹ s⁻¹ | aNRP2-401v8 (antibody, V domains shown) VH: EVQLVESGGGLVQPGGSLRLSCAASGFTFSDYGMHWVRQAPGKGLEWVSTISRDIQTVYYADTVKGRFTISRDNAKNSLYLQMNSLRAEDTAVYYCARGGYTDYWGQGTTVTVSS VL: DIVMTQTPLSLSVTPGQPASISCRSSQSLVHSNGNTYLYWYLQKPGQSPQLLIYKVSNRFSGVPDRFSGSGSGTDFTLKISRVEAEDVGVYYCAQSTHPLTFGGGTKVEIK
3 | 0.162 nM | 0.000162 s⁻¹ | 999000 M⁻¹ s⁻¹ | aNRP2-401v6 (antibody, V domains shown) VH: EVQLVESGGGLVQPGGSLRLSCAASGFTFSDYGMHWVRQAPGKGLEWVSTISRDINTVYYADTVKGRFTISRDNAKNSLYLQMNSLRAEDTAVYYCARGGYTDYWGQGTTVTVSS VL: DIVMTQTPLSLSVTPGQPASISCRSSQSLVHSNGNTYLYWYLQKPGQSPQLLIYKVSNRFSGVPDRFSGSGSGTDFTLKISRVEAEDVGVYYCAQSTHPLTFGGGTKVEIK
4 | 0.141 nM | 0.000173 s⁻¹ | 1.23e+06 M⁻¹ s⁻¹ | aNRP2-401v7 (antibody, V domains shown) VH: EVQLVESGGGLVQPGGSLRLSCAASGFTFSDYGMHWVRQAPGKGLEWVSTISRSINTVYYADTVKGRFTISRDNAKNSLYLQMNSLRAEDTAVYYCARGGYTDYWGQGTTVTVSS VL: DIVMTQTPLSLSVTPGQPASISCRSSQSLVHSNGNTYLYWYLQKPGQSPQLLIYKVSNRFSGVPDRFSGSGSGTDFTLKISRVEAEDVGVYYCAQSTHPLTFGGGTKVEIK

Molecular target: recombinant NRP2 isoform a (human) (UniProt O60462)
Assay: BLI, antibody captured by anti-mouse kappa, NRP2a titrated 0.62-450 nM, 1:1 fit

Row | Kd | Binder
5 | 0.767 nM | aNRP2-37v2 (antibody, V domains shown) VH: DVKLVESGEGLVKPGGSLKLSCAASGFTFSDYALSWVRQTPEKRLEWVAYISSGGDYIYYADTVRGRFTISRDNARNTLYLQMSSLQSEDTAIYYCTRGGQDDYWGQGTTLTVSS VL: DVVMTQTPLSLPVILGDQASISCRSSQSLVHSNGNTYLQWYLQKPGQSPKLLIYKVSNRFSGVPDRFSGSGSGTDFTLKISRVEAEDLGVYFCSQSTHVPFTFGSGTNLEIK
6 | 1.4 nM | aNRP2-403v2 (antibody, V domains shown) VH: QVQLQQPGAELVKPGASVKLSCKASGYTFTSYWMHWVKQRPGRGLEWIGRIDPNSGDTKYNEKFKSKATLTVDKPSSTAYMQVSSLTSEDSAVYYCARSYDYALEYWGQGTSVTVSS VL: DVVMTQTPLSLPVSLGDQASISCRSSQSLVHSNGNTYLHWFLQKPGQSPNLLIYKVSNRFSGVPDRFSGSGSGTDFTLKISRVEAEDLGVYFCSQNTRVPRTFGGGTKLEIK
7 | 0.136 nM | aNRP2-401v2 (antibody, V domains shown) VH: EVQLQESGGGLVKPGGSLKLSCAASGFTFSDYGMHWVRQAPEKGLEWVATISRDINTVYYADTVKGRFTISRDNAKNTLFLQVTSLRSEDTAMYYCTRGGYTDYWGQGTTLTVSS VL: DIVMTQTPLSLPVSLGDQASISCRSSQSLVHSNGNTYLYWYLQRPGQSPKLLIYKVSNRFSGVPDRFSGSGSGTDFTLKISRVEAEDLGVYFCSQSTHVLTFGGGTKLEIK
8 | 2.23 nM | aNRP2-409v3 (antibody, V domains shown) VH: EVQFVETGGGLVQPKGSLKLSCAASGFTFNTNAMNWVRQAPGKGLEWVARIRTKSNNYATYYADSVKDRFTISRDDSQNILYLQMNNLKTEDTAMYYCVTLDSSGYVWFAYWGQGTLVTVSA VL: DIQMTQSPSSLSASLGERVSLTCRASQDIGSRLNWLQQEPDGTIKRLIYATSSLDSGVPKRFSGSRSGSDYSLTISSLESEDFVDYYCLQYASSPYTFGGGTKLEIK

Second part, the binder before the results:

Row | Binder | Kd
9 | aNRP2-407v2 (antibody, V domains shown) VH: EVQLQQSGPELVKPGASVTISCKASGYSFTGYYMHWVKQSHVKSLEWIGRINPYNGATSYSQNFKDKASLTIDKSSSTAYMELHSLTSEDSAVYYCAREETTAPFTYWGQGTLVTVSA VL: DIVMSQSPSSLAVSVGEKVTMSCKSSQSLLYSSNQKNYLAWYQQKPGQSPKLLIYWASTRESGVPDRFTGSGSGTDFTLTISSVQAEDLAVYFCQHYYSYPPTFGGGTKLEIK | 0.352 nM
10 | aNRP2-400v2 (antibody, V domains shown) VH: EVQLQESGAELARPGASVKLSCKASGYTFRSYGISWVKQRTGQGLEWIGEIYPRSGNTYYDENFKGRATLTADKSSSTAFMELRSLTSEDSAVYFCARSSITAVVAIPYYYAMDYWGQGTSVTVSS VL: DIQMTQTTSSLSASLGDRVTISCSASQGISNYLNWYQQKPDGSVKLLIYYTSSLHSGVPSRFSGSGSGTDYSLTISNLEPEDIATYYCQQYSKLPHTFGGGTKLELK | 0.453 nM
11 | aNRP2-405v2 (antibody, V domains shown) VH: EVMLVESGGGLVKPGGSLKLSCAASGFTFRRYAMSWVRQTPEKGLEWVATITSGGSYTYYLDSVKGRITISRDNAKNTLYLQMSSLRSEDTAMYYCARHGIYGGFDYWGQGTTLTVSS VL: DVLMTQTPLSLPVSLGDQASISCRSSQSIVHSDGNTYLEWYLQKPGQSPNLLIYKVSNRFSGVPDRFSGSGSGTDFTLKISRVEAEDLGIYYCFQGSHVPFTFGSGTKLEIK | 0.48 nM
12 | aNRP2-408v2 (antibody, V domains shown) VH: EVKLVESGGGLVKPGGSLKLSCAASGFTFSSYAMSWVRQTPEKRLEWVASISRGSITYYPDSVKGRFTISRDNAGNILYLQMSSLRSEDTAMYYCAREYYYAMDYWGQGTSVTVSS VL: DIQMTQSPSSLSASLGERVSLTCRASQDIGSRLNWLQQEPDGTIKRLIYATSSLDSGVPKRFSGSRSGSDYSLTISSLESEDFVDYYCLQYASSPYTFGGGTKLEIK | 2.1 nM
